Columns and labels:
Assay in all cases: fluorescence polarization; WT-like affinity; figure values not assignable from text layer; 20 mM HEPES pH 8.0, 10 mM NaCl, 5% glycerol, 1 mM MgCl2, 0.5 mM TCEP, 0.5 nM Cy3-ssDNA; temperature not stated
Settings in all cases: protein: recombinant; tags: Trx-His6 removed by 3C protease; label: 5' Cy3
RecQ4 427-1208 R618L = target: T1, RecQ4 427-1208 R618L (Homo sapiens, UniProt O94761 427-1208, R618L)
T1 sequence: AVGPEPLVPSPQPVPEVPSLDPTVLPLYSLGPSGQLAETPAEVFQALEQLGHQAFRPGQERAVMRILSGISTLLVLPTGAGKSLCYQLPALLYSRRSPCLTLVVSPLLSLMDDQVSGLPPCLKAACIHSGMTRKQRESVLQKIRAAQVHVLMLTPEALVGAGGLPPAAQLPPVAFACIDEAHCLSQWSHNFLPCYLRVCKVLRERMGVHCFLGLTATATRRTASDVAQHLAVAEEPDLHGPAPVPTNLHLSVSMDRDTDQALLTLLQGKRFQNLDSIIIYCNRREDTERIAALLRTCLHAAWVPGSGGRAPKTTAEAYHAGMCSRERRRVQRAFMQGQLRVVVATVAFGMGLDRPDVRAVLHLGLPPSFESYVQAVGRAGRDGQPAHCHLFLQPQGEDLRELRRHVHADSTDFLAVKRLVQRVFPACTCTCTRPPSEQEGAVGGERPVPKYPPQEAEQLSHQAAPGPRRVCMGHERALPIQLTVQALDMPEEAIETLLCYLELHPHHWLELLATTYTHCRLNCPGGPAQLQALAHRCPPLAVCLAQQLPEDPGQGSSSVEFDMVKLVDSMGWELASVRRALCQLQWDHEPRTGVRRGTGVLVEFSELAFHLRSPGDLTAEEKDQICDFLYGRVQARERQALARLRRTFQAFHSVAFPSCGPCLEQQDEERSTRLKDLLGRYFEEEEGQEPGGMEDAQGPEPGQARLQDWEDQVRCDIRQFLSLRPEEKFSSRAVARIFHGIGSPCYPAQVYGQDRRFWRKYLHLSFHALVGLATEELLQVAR

RecQ4 427-1208 H615L = target: T2, RecQ4 427-1208 H615L (Homo sapiens, UniProt O94761 427-1208, H615L)
T2 sequence: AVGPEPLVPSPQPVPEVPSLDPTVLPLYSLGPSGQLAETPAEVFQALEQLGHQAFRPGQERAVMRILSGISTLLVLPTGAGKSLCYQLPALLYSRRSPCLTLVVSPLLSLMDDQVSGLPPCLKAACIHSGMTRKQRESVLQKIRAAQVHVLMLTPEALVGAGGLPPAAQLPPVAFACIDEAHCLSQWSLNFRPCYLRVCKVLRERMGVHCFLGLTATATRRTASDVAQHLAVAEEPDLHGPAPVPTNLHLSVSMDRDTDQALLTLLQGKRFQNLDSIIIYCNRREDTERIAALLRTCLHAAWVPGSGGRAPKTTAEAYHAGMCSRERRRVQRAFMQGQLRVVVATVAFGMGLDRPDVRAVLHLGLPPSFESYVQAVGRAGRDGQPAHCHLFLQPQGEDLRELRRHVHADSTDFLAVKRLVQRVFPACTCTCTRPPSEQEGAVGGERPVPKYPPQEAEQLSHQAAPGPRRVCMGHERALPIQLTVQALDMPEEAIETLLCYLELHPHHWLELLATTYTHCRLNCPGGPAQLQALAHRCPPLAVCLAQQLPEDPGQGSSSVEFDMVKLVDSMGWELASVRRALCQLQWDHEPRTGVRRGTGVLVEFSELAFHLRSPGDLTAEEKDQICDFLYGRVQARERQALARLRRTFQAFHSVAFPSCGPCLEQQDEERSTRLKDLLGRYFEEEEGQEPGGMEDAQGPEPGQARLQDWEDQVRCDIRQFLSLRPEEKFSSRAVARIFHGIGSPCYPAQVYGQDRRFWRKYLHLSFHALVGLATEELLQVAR

RecQ4 427-1208 F617L = target: T3, RecQ4 427-1208 F617L (Homo sapiens, UniProt O94761 427-1208, F617L)
T3 sequence: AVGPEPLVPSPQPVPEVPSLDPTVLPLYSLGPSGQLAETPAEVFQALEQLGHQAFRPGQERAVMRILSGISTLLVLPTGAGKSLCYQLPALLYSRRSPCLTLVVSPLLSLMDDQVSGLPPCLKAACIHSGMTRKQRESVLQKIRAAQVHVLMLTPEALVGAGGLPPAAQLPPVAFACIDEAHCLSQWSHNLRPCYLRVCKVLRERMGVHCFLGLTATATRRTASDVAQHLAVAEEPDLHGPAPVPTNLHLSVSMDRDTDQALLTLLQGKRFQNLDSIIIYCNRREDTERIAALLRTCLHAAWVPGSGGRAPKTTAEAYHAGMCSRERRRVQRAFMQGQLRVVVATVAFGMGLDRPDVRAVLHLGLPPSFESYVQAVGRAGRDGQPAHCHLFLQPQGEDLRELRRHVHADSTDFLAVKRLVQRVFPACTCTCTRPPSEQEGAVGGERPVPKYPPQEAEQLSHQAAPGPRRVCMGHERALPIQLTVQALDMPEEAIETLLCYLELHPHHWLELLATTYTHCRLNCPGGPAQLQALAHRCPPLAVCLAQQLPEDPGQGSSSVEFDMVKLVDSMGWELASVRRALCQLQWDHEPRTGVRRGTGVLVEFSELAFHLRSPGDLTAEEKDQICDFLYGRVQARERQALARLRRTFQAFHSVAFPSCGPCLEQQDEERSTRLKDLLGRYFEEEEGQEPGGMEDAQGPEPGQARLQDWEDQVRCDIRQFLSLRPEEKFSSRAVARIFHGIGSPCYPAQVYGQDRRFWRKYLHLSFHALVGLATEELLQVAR

Measured: binding result

B1: T3-Cy3 (ssDNA)
DNA: CCATTCCACCCTCTATTTTTTTTTTTTTTT
binds: all assays above
